Laboratory results: the supplement of paper PMC12764529
± gives the half width of the 95% confidence interval.

Assay: folding stability dG unfold from chymotrypsin proteolysis; higher = more stable
Procedure, shortened: (§1)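 Bayesian fitting of sequencing counts gave K50 for each design. Unfolding free energy followed by setting this against a sequence-predicted unfolded-state K50 and a shared folded-state K50, either per protease or with trypsin and chymotrypsin combined. The designs, under 80 residues and lacking cysteine, were digested in a PA-tagged cDNA display format at 11 threefold-diluted protease concentrations and without protease, and only those with AlphaFold2 dimer inter-PAE above 15 were kept.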

Sequence | folding stability dG unfold [kcal/mol]
SAGMIKIEETDGKLKVTITLKADDPEEITVEMIKEELEKLGLEVAEIKITPEPNEDGQYTVTAEIVVDVSAG [r5_922_TrMRF] | 3.06 ± 0.16
SAGGSAGGKPKVVELELTTEDGSKVRVVFTEDSVYIYNEETGLLVKYNLKTGKFELKEVYPLEESAGGSAGG [r6_462_TrROS_Hall] | 3.24 ± 0.055
SAGLRIEPTPDYIKITMPGPNMANEIIKKIQEHFGDIEIDDIKPEPYPNGNNRVTIWIPLKNLPPELLKSAG [r5_857_TrROS] | 1.18 ± 0.085
MEKVLILAKIKLKGPDGEEAEIDFAVEISPEEATPELLKKVREEAEEIAEALKEKGYEVELEVEVVKLGEES [r1_221_TrMRF] | 2.88 ± 0.24
SAKTIKIEIEVKPEKLEEVLEEIAKALAEKLGLPEDVKEIKIEVTKIEVEKVKVDGKEYVKVKIEIKVESAG [r14_736_TrROS_Hall] | 3.97 ± 0.28
SAGGSAGGSAGGGMPVEMKITLYDPDGTKIGEYTLKVKSEEELKKAVEEKGYNYEVDKESAGGSAGGSAGGS [r10_958_JUSTAS] | 0.17 ± 0.16
SAGGGPLKPILLKVTAKVEKNGKLLEVEAEIAVPLPNKPITLEEIRKILEEALPPDVKIVSLELDPESAGGS [r16_407_TrMRF] | 2.6 ± 0.075
SAGGSAGGSAGGFRIKITEIWPISMEMRKPDPENGKWKEQPMTIMIIRIKIENLPPGAKISAGGSAGGSAGG [r17_530_TrROS] | 3.9 ± 0.079
SAGGSAGGSAGMKTLKTTTKVFPGTGVIVTESLVEFPNGSLKKLTKVTYVKNPNPSTTLASAGGSAGGSAGG [r17_41_JUSTAS] | 0.545 ± 0.14
SAGGGNKVLLVVEAESPEVLEEKIREAEEAFGFTVTPLRREPLPDDRYRLVLEIDAPPEVVEFFKKESAGGS [r8_357_TrMRF] | 1.35 ± 0.092
SMVVIEFETKKPKEQAEKAVEKAKKEIPELEEVLEIEVEEFPDFLKVKIVLKGGKITPEDLEKLKEFLEKSA [r9_195_TrMRF] | 2.4 ± 0.071
SAGGSAGGSAGMIVLFPLEEKKFIIYDPETGKVEEIEGTPEEVLEYAKKKYPDKEVYLLPSAGGSAGGSAGG [r11_614_TrMRF] | 5.19 ± 0.3
SAGGSAENDRFIVRVTIQMRNPGDGEKRTHTIPWFEFEPGKPAEEFAIDIADDFGIDNIDVEVYPLSAGGSA [r15_540_TrROS] | 1.68 ± 0.026
KIKIEPGETVRIKVKVKLPDGEEKEIEIELSLEELEKKLGRPLTPEEILNLIKEEAEKKGFEVEEVEIEKES [r1_338_TrROS_Hall] | 1.38 ± 0.12
SMLVSVTFPLTLEPEEGDHTVRIYATAPDGSSLGEVTAPVKAVGDKVEFEVTATFPLPEGAVIERIETEPSA [r9_292_TrMRF] | 0.857 ± 0.12
SAGGSAGGSAGGSMSGVFSTETVFLEKTLPDGSRVEALTTIETYLPLPPLPPFKFPSAVSAGGSAGGSAGGS [r4_325_JUSTAS] | 0.415 ± 0.13
SAGGSPEEIANEVKEKILKELPPGVKVEVSVEVTPEGATVTVKVPEGKEYTVKVEGDKIVEIKLLKKSAGGS [r8_287_JUSTAS] | 1.92 ± 0.057
SSITETKEFLLESEEEVEAIAEELKKPGVEVEVEVKEVERVDKKTGKKKKALKATITVKIPLPPPEKGKLSA [r9_962_JUSTAS] | 0.742 ± 0.069
SAGGSAGGSAGGKKKLKIKIEIKIEEKIKKTPNGKLEKEKKIEITKIIEIEPDSPLLKKLSAGGSAGGSAGG [r7_889_TrROS_Hall] | 0.948 ± 0.29
SAGGSAGGDPNKPPPPKQIEIPIPPDNITDVEPNPDGFYFMEFNLPDGDSITIIVYPDGNIHIMSAGGSAGG [r6_119_TrROS] | 4.25 ± 0.34
SAGGSAGGSAGMITIYAPPSVPVEEVREEVKEKIKKENPNDPKEVKGVEVDPNGSLEELESAGGSAGGSAGG [r17_43_JUSTAS] | -0.655 ± 0.31
SAGGKPKKKPPPVIEIVDIRVEYDPETKEVRITVKIRLPNGETLTLTITVPPGTTLEELLEKLKELLSSAGG [r13_578_TrROS_Hall] | 2.71 ± 0.11
SAGGDVGLEEKAREIAEELREEISKKLGVNVKVTEVKVEYDPKTGKYTVTVTITLPGGETITITVPESAGGS [r8_372_JUSTAS] | 4.36 ± 0.54
KTYTIDEIAEKLGMSKEELKNMSAEEIKEALKKLLPPEEIEKVEISYNEKDKKVTITVTLKNGEKVEITIDS [r1_340_TrROS_Hall] | 5.06 ± 0.23

Assay: folding stability dG unfold (combined trypsin and chymotrypsin); higher = more stable
Procedure, shortened: as §1

Sequence | folding stability dG unfold [kcal/mol]
SAGGMELVGEYEVELPDVPIRFPVYRVPEAGLVVVEAERYDPSTGEWTPLGVVPLPEGSAEEALKALSAGGS [r8_423_TrMRF] | 0.864 ± 0.061
SAGMAKVKLKVEVYFPKTGKPVTMEIEVEGLTLEEIIEEVKKAIEAIGLKIDPDAPVKIVITDIEVYPGSAG [r5_230_TrMRF] | 3.77 ± 0.077
SAGNPVLLKRPFIDPENGEPVYELTLFDPESNIVTTLFFNSDGKVIAVAVAYVPPETDEVDIELSVFDGSAG [r5_747_TrMRF] | 1.47 ± 0.062
SAGGSAGGSAGAANDPKKIPIHIFPPDGKPIFKVKIEVYDNGIKIKIEWHPSPDGLYPMISAGGSAGGSAGG [r11_874_TrROS] | 1.99 ± 0.14
SAGDKGRYHFPFTVTMPPGKPPSQIEDALGKYGWDDVDINREPPPNGETKYTINVHMPKEDLPKLLEAFSAG [r5_376_TrROS] | 0.963 ± 0.12
GSAGVMFGSREDIEALAAALGPDVAPTDVTYDPSGYYYYTIPLPDGTPTSLTIPPDKYSPEEVAALARRLTS [r1_279_JUSTAS] | 0.481 ± 0.14
SAGNRYEVNLTYMYPPDDPGLIEKIKKILRKLGWEIEKVKEQRMPDNKMRMVTHKIRIPGLPPEALKAFSAG [r14_956_TrROS] | 1.31 ± 0.37
SAGGSAGGSAMPPLISTTPILGEEPGKRLVREIVTLPDGSLIELTYDEDGNVIESKKYIVGKSAGGSAGGSA [r18_467_JUSTAS] | 0.94 ± 0.049
SAGGSAGGSAGGYIEIVFAHPDPEPGYKYAMVMEIQMDPPGNMEMNIRVIKDPEDAKEAFSAGGSAGGSAGG [r11_792_TrROS] | 1.41 ± 0.19
SALWVIKDTIKPPNGKKRKISIAIPNDGLYVWFNGGSFPIPLKEIKKIMENFPGYQIDDIEIMPLDELKSAG [r14_336_TrROS] | 0.448 ± 0.32
SAGGKKKVFLLENGELVVFDPETGKLEPVKLPEIPLTVEVEFEEGEGKIRVTVTNPAGLKLEFEFDFSAGGS [r16_453_TrMRF] | 3.19 ± 0.15
SAGGDPNGKWVTINIPIWIPGPPEQAEMIAESIMEELGFEITDVKVEPHPDDPNWVRIDITLTFRKKSAGGS [r8_479_TrROS] | 2.83 ± 0.18
SKKIKLSEEMKEAIKEAVKKAKPGEKVEITIKLKDGSIIKIEIYPDGTIKISVFDKNGKKIKEFEIKIKPSA [r9_132_TrROS_Hall] | 1.81 ± 0.44
SAGGGLEEFARRLAEELARLLGGPNVPFELEGVVVFGFRLRPDGTPEPTTSRPVVVRVRFETPGGDPSAGGS [r16_156_TrMRF] | 3.58 ± 0.1
SAGMKPGEKVKVTLTLTETRVEEVDGEKKVEKRTLTIEVTVEVSEEDREKALEEAEELARKLAEEGLIPSAG [r5_532_TrROS_Hall] | 1.31 ± 0.28
SAGGSAGGSAGPKPLATITLPYPDNASVTITVTPNGVLIDPDPNITNPEVEKAVADALTDSAGGSAGGSAGG [r11_372_TrMRF] | 1.41 ± 0.099
SAGGSAGGSEPVVIKVTVTNENGEKRTITLPEIEVEPGETIEEIAAALAAEPGVKEVKVEVVPSAGGSAGGS [r12_199_TrROS_Hall] | 0.605 ± 0.069
SAGMTLTVVLPVPEEMTEEEAAEILRAYVDAVVAELLAGDAVAVPKEIVVDKETGTAVAKVELFIPPDLSAG [r5_146_TrMRF] | 2.58 ± 0.068
SAGMIKIEETDGKLKVTITLKADDPEEITVEMIKEELEKLGLEVAEIKITPEPNEDGQYTVTAEIVVDVSAG [r5_922_TrMRF] | 3.08 ± 0.23

Sequence | folding stability dG unfold [kcal/mol]
SAGGSAGGKPKVVELELTTEDGSKVRVVFTEDSVYIYNEETGLLVKYNLKTGKFELKEVYPLEESAGGSAGG [r6_462_TrROS_Hall] | 2.92 ± 0.28
SAGLRIEPTPDYIKITMPGPNMANEIIKKIQEHFGDIEIDDIKPEPYPNGNNRVTIWIPLKNLPPELLKSAG [r5_857_TrROS] | 1.06 ± 0.07
MEKVLILAKIKLKGPDGEEAEIDFAVEISPEEATPELLKKVREEAEEIAEALKEKGYEVELEVEVVKLGEES [r1_221_TrMRF] | 3.25 ± 0.65
SAKTIKIEIEVKPEKLEEVLEEIAKALAEKLGLPEDVKEIKIEVTKIEVEKVKVDGKEYVKVKIEIKVESAG [r14_736_TrROS_Hall] | 3.59 ± 0.32
SAGGSAGGSAGGGMPVEMKITLYDPDGTKIGEYTLKVKSEEELKKAVEEKGYNYEVDKESAGGSAGGSAGGS [r10_958_JUSTAS] | 0.29 ± 0.1
SAGGGPLKPILLKVTAKVEKNGKLLEVEAEIAVPLPNKPITLEEIRKILEEALPPDVKIVSLELDPESAGGS [r16_407_TrMRF] | 2.67 ± 0.21
SAGGSAGGSAGGFRIKITEIWPISMEMRKPDPENGKWKEQPMTIMIIRIKIENLPPGAKISAGGSAGGSAGG [r17_530_TrROS] | 3.41 ± 0.1
SAGGSAGGSAGMKTLKTTTKVFPGTGVIVTESLVEFPNGSLKKLTKVTYVKNPNPSTTLASAGGSAGGSAGG [r17_41_JUSTAS] | 0.602 ± 0.19
SAGGGNKVLLVVEAESPEVLEEKIREAEEAFGFTVTPLRREPLPDDRYRLVLEIDAPPEVVEFFKKESAGGS [r8_357_TrMRF] | 1.3 ± 0.045
SMVVIEFETKKPKEQAEKAVEKAKKEIPELEEVLEIEVEEFPDFLKVKIVLKGGKITPEDLEKLKEFLEKSA [r9_195_TrMRF] | 2.63 ± 0.27
SAGGSAGGSAGMIVLFPLEEKKFIIYDPETGKVEEIEGTPEEVLEYAKKKYPDKEVYLLPSAGGSAGGSAGG [r11_614_TrMRF] | 5.15 ± 0.49
SAGGSAENDRFIVRVTIQMRNPGDGEKRTHTIPWFEFEPGKPAEEFAIDIADDFGIDNIDVEVYPLSAGGSA [r15_540_TrROS] | 1.57 ± 0.052
KIKIEPGETVRIKVKVKLPDGEEKEIEIELSLEELEKKLGRPLTPEEILNLIKEEAEKKGFEVEEVEIEKES [r1_338_TrROS_Hall] | 0.961 ± 0.36
SMLVSVTFPLTLEPEEGDHTVRIYATAPDGSSLGEVTAPVKAVGDKVEFEVTATFPLPEGAVIERIETEPSA [r9_292_TrMRF] | 0.869 ± 0.084
SAGGSAGGSAGGSMSGVFSTETVFLEKTLPDGSRVEALTTIETYLPLPPLPPFKFPSAVSAGGSAGGSAGGS [r4_325_JUSTAS] | 0.437 ± 0.26
SAGGSPEEIANEVKEKILKELPPGVKVEVSVEVTPEGATVTVKVPEGKEYTVKVEGDKIVEIKLLKKSAGGS [r8_287_JUSTAS] | 1.51 ± 0.28
SSITETKEFLLESEEEVEAIAEELKKPGVEVEVEVKEVERVDKKTGKKKKALKATITVKIPLPPPEKGKLSA [r9_962_JUSTAS] | 0.794 ± 0.15
SAGGSAGGSAGGYFIRYPGNGREIMIPPDDIEDFLDTLPPGFPPENVKIYPFDPNGKPISAGGSAGGSAGGS [r10_13_TrROS] | < -1
